Source: patent US20260232732A1 (FUNDACI INSTITUT DE RECERCA CONTRA LA LEUC MIA JOSEP …, published 2026)
Values belong to the binder of their own block, whether it stands above or below them. Where no end group is shown, it is not given here. The star is where a group is joined. Biotin = O=C1N[C@H]2[C@H](CS[C@H]2CCCCC(=O)*)N1

Tests used:
[1] = molecular target: T1, Peptide 1-BSA (MADDYGSEST-C conjugated to BSA) (human); test: ELISA; Ab 0.0625 ug/mL; repI
T1 peptide: MADDYGSESTC(BSA)
Method: (§1) In brief, plates with each non-conjugated peptide (50 μg/mL) or BSA-conjugated peptide (5 μg/mL) were coated in 0.58M carbonate-bicarbonate buffer pH9.5, 100 μL/well, at 4° C. […] After washing, wells were incubated with the 3, 3′,5,5′-Tetramethylbenzidine (TMB) HRP substrate and reactions were stopped with 2M HCl and OD450 was recorded.

[2] = molecular target: T2, Peptide 3-BSA (SSMEDYVNFN-C conjugated to BSA) (human); test: ELISA; Ab 0.0625 ug/mL; repI
T2 peptide: SSMEDYVNFNC(BSA)
Method: as §1

[3] = molecular target: T3, Peptide 1, non-conjugated (MADDYGSEST-C) (human); test: ELISA; Ab 0.0625 ug/mL; repI
T3 construct: With the extra C-terminal Cys
T3 peptide: MADDYGSESTC
Method: as §1

[4] = molecular target: T4, BSA (negative control coating) (bovine, UniProt P02769 25-607); test: ELISA; Ab 0.0625 ug/mL; repI
T4 construct: also called Negative control BSA
Method: as §1

[5] = molecular target: T5, Peptide 4, non-conjugated (SMEDYVNFNF-C) (human); test: ELISA; Ab 0.0625 ug/mL; repI
T5 construct: With the extra C-terminal Cys
T5 peptide: SMEDYVNFNFC
Method: as §1

[6] = molecular target: T6, antigen peptide-BSA (immunisation peptide #1 MADDYGSESTSSMEDYVNFNF-C conjugated to BSA) (human, extra C-terminal Cys conjugated to BSA); test: ELISA; Ab 0.0625 ug/mL; repI
T6 construct: also called Positive control antigen peptide-BSA; MADDY peptide
T6 peptide: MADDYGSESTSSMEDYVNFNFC
Method: as §1

[7] = molecular target: T7, Peptide 4-BSA (SMEDYVNFNF-C conjugated to BSA) (human); test: ELISA; Ab 0.0625 ug/mL; repI
T7 peptide: SMEDYVNFNFC(BSA)
Method: as §1

[8] = molecular target: T8, Peptide 2, non-conjugated (GSESTSSMED-C) (human); test: ELISA; Ab 0.0625 ug/mL; repI
T8 construct: With the extra C-terminal Cys
T8 peptide: GSESTSSMEDC
Method: as §1

[9] = molecular target: T9, Peptide 2-BSA (GSESTSSMED-C conjugated to BSA) (human); test: ELISA; Ab 0.0625 ug/mL; repI
T9 peptide: GSESTSSMEDC(BSA)
Method: as §1

[10] = molecular target: T10, Peptide 3, non-conjugated (SSMEDYVNFN-C) (human); test: ELISA; Ab 0.0625 ug/mL; repI
T10 construct: With the extra C-terminal Cys
T10 peptide: SSMEDYVNFNC
Method: as §1

[11] = molecular target: T3, Peptide 1, non-conjugated (MADDYGSEST-C); test: ELISA; Ab 0.01563 ug/mL; repI
Method: as §1

[12] = molecular target: T4, BSA (negative control coating); test: ELISA; Ab 0.01563 ug/mL; repI
Method: as §1

[13] = molecular target: T5, Peptide 4, non-conjugated (SMEDYVNFNF-C); test: ELISA; Ab 0.01563 ug/mL; repI
Method: as §1

[14] = molecular target: T6, antigen peptide-BSA (immunisation …); test: ELISA; Ab 0.01563 ug/mL; repI
Method: as §1

[15] = molecular target: T7, Peptide 4-BSA (SMEDYVNFNF-C conjugated …); test: ELISA; Ab 0.01563 ug/mL; repI
Method: as §1

[16] = molecular target: T8, Peptide 2, non-conjugated (GSESTSSMED-C); test: ELISA; Ab 0.01563 ug/mL; repI
Method: as §1

[17] = molecular target: T10, Peptide 3, non-conjugated (SSMEDYVNFN-C); test: ELISA; Ab 0.01563 ug/mL; repI
Method: as §1

[18] = molecular target: T1, Peptide 1-BSA (MADDYGSEST-C conjugated …); test: ELISA; Ab 1 ug/mL; repI
Method: as §1

[19] = molecular target: T3, Peptide 1, non-conjugated (MADDYGSEST-C); test: ELISA; Ab 1 ug/mL; repI
Method: as §1

[20] = molecular target: T5, Peptide 4, non-conjugated (SMEDYVNFNF-C); test: ELISA; Ab 1 ug/mL; repI
Method: as §1

[21] = molecular target: T8, Peptide 2, non-conjugated (GSESTSSMED-C); test: ELISA; Ab 1 ug/mL; repI
Method: as §1

[22] = molecular target: T11, biotin-peptide TSSMEDYVNF (human); test: ELISA biotin-peptide; scFv 1.25 ug/mL; repII
T11 peptide: Biotin-TSSMEDYVNF
Method: (§2) The peptides were synthesized naked or with a N-terminal Biotin modification with a purity of >98%. All four scFvs were verified by ELISA that can be detected with anti-His antibodies. ELISA was performed for scFv-peptide binding validation. Briefly, naked peptides were coated (50 μg/mL) in 0.58M carbonate-bicarbonate buffer pH9.5, 100 μL/well, 4° C. O/N. Then after blocking (3% BSA-PBS, 300 μL/well 37° C. 1.5 h) and washing (PBS+Tween-20 0.05% v/v (0.05% PBST), wells were incubated with each purified scFv antibody at concentration of 1 μg/mL in PBS at 37° C. 1 h. After washing (0.05% PBST), wells were incubated with secondary antibodies (goat anti-His IgG-HRP) in PBS, 37° C., 30 min. After washing, and incubation with TMB substrate, reactions were stopped with 2M HCl and reading was quantified at OD450.
(§3) ELISA with biotin-conjugated peptides (5 μg/mL) was performed very similar to described above with minor modifications.
(§4) A full curve ELISA was performed for each positive scFv/biotin-peptide pair in order to confirm previous results. Tables 15-17 show ELISA results of the dose-dependent full curve for each positive peptide with scFv “CCR9_HUM”, “Comp-2” and “Comp-3”, respectively.

[23] = molecular target: T12, biotin-peptide SMEDYVNFNF (human); test: ELISA biotin-peptide; scFv 1.25 ug/mL; repII
T12 peptide: Biotin-SMEDYVNFNF
Method: as §2, §3, §4

[24] = molecular target: T13, biotin-peptide SSMEDYVNFN (human); test: ELISA biotin-peptide; scFv 1.25 ug/mL; repII
T13 peptide: Biotin-SSMEDYVNFN
Method: as §2, §3, §4

[25] = molecular target: T14, biotin-peptide MEDYVNFNFT (human); test: ELISA biotin-peptide; scFv 1.25 ug/mL; repII
T14 peptide: Biotin-MEDYVNFNFT
Method: as §2, §3, §4

T4 sequence (P02769 25-607 limits assumed): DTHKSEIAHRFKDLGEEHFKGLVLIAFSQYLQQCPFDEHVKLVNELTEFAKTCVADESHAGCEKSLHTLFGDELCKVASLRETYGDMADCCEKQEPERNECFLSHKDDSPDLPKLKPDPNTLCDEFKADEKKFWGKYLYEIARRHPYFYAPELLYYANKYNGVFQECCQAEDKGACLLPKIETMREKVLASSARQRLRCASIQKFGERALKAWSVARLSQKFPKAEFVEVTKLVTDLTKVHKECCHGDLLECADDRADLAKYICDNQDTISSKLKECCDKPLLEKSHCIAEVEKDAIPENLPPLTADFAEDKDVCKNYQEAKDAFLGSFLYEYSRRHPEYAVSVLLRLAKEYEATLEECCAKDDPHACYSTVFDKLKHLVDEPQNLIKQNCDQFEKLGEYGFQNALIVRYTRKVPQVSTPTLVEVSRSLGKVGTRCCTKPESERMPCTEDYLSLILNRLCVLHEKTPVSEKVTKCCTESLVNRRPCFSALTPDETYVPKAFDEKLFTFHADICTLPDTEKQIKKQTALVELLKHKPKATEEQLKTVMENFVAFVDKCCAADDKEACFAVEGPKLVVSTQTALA

OD450 [1]: 0.01 OD | OD450 [2]: 1.88 OD | OD450 [3]: 0.01 OD | OD450 [4]: 0.01 OD | OD450 [5]: 1.14 OD | OD450 [6]: 1.84 OD | OD450 [7]: 1.98 OD | OD450 [8]: 0.01 OD | OD450 [9]: 0.01 OD | OD450 [10]: 1.83 OD | OD450 [11]: 0.01 OD | OD450 [12]: 0.01 OD | OD450 [13]: 0.38 OD | OD450 [14]: 1.1 OD | OD450 [15]: 0.91 OD | OD450 [16]: 0.01 OD | OD450 [17]: 1.47 OD | OD450 [18]: 0.04 OD | OD450 [19]: 0.02 OD | OD450 [20]: 2.49 OD | OD450 [21]: 0.03 OD
B1: anti-CCR9 antibody clone 115 (murine, from hybridoma #115) (antibody, V domains shown)
VH: QVQLKQSGPELVKPGTSVRVSCTASGYSFTDYIIYWVKQSHGRSLEWIGYIDPNNYNTRYSQKFKGKATLTVDKSSTSAFMHLNSLTSDDSAVYYCARDVYWGQGTTLTVSS
VL: DVVMTQTPLSLTVSLGDQASISCRSSQSLVHSNGKTYLQWYLQKPGQSPKLLIYKVSNRFSGVPDRFSGSGSGTDFTLKISRVEAEDLGVYFCAQSTHVWTFGGGTKLEIKR
notes: Mouse IgG1

OD450 [22]: 1.23 OD | OD450 [23]: 1.72 OD | OD450 [24]: 1.77 OD | OD450 [25]: 1.49 OD
B2: CCR9_HUM2 scFv (humanized anti-CCR9 scFv, SEQ ID NO: 17 with C-terminal 6xHis tag) (scFv)
scFv: QVQLVQSGAEVKKPGASVKVSCTASGYSFTDYIIYWVKQAHGQSLEWMGYIDPNNYNTRYSQKFQGKVTITVDKSSTSAYMELNSLTSDDTAVYYCARDVYWGQGTTVTVSSGGGGSGGGGSGGGGSGGGGSDVVMTQTPLSLSVTPGQPASISCRSSQSLVHSNGKTYLQWYLQKPGQSPKLLIYKVSNRFSGVPDRFSGSGSGTDFTLKISRVEAEDVGVYFCAQSTHVWTFGGGTKVEIKRAHHHHHH
